Source: the RNAGym collection of RNA variant scans (doi:10.1021/acssynbio.7b00057)

B1: Pistol ribozyme (parent)
chain: GGGUCGUUGUUCCAUAAUCGCGUGGAUAUGGCACGCAAGUUUCUACCGGGCACCGUAAAUGUCCGACUGGAGCCGUUCGGGCGGCUAUAAACAGACCUCAGGCCCGAAGCGUGGCGGCACCUGCCGCCGGUGGUAAAAAAGAUCGGAAGAGCACACGUCU

Variants of: B1
Experiment: aptazyme ON/OFF ratio, guanine; higher = stronger switching; co-transcriptional cleavage with and without guanine
For U7G U8A G9A U11A C12U C13A, the “aptazyme ON/OFF ratio” value was 1.17. In the case of U7G U8A G9A U11A C12U C13U, the “aptazyme ON/OFF ratio” value is reported as 1.06. In the case of U7G U8A G9C U10G U11C C12U C13G, the “aptazyme ON/OFF ratio” value is reported as 1.03. In the case of U7G U8A G9C U10G U11C C12U C13U, the “aptazyme ON/OFF ratio” value is reported as 1.04. In the case of U7G U8A G9C U10G U11C C12U C13A, the “aptazyme ON/OFF ratio” value is reported as 1.05. In the case of U7G U8A G9C U10C C12G C13U, the “aptazyme ON/OFF ratio” value is reported as 1.07. In the case of U7G U8A G9C U10C C12G C13A, the “aptazyme ON/OFF ratio” value is reported as 1.14. In the case of U7G U8A G9C U10C C12G C13G, the “aptazyme ON/OFF ratio” value is reported as 1.01. For U7G U8A G9C U10C U11C C12A C13A, the “aptazyme ON/OFF ratio” value was 1.05. In the case of U7G U8A G9C U10C U11C C12A C13U, the “aptazyme ON/OFF ratio” value is reported as 1.03. For U7G U8A G9C U10C U11C C12A C13G, the “aptazyme ON/OFF ratio” value was 1. With U7G U8A G9A U10G U11G C12A C13G the “aptazyme ON/OFF ratio” value was 1.14. For U7G U8A G9A U10G U11G C12A C13U, the “aptazyme ON/OFF ratio” value was 1.17. For U7G U8A G9A U10G U11G C12A C13A, the “aptazyme ON/OFF ratio” value was 1.06. For U7G U8A G9C C12U C13G, the “aptazyme ON/OFF ratio” value was 1.06. For U7G U8A G9C C12U C13A, the “aptazyme ON/OFF ratio” value was 1.06. With U7G U8A G9C C12U C13U the “aptazyme ON/OFF ratio” value was 1.03. In the case of U7G U8A G9C U10G U11C C13A, the “aptazyme ON/OFF ratio” value is reported as 1.03. With U7G U8A G9C U10G U11C C13U the “aptazyme ON/OFF ratio” value was 1.02. For U7G U8A G9C U10G U11C C13G, the “aptazyme ON/OFF ratio” value was 1.06. For U7G U8A G9C U11A C12U C13A, the “aptazyme ON/OFF ratio” value was 1.03. In the case of U7G U8A G9C U11A C12U C13U, the “aptazyme ON/OFF ratio” value is reported as 1.02. For U7G U8A G9C U11A C12U C13G, the “aptazyme ON/OFF ratio” value was 1.03. For U7G U8A G9A U11C C12G, the “aptazyme ON/OFF ratio” value was 1.21. For U7G U8A G9A U11C C12A, the “aptazyme ON/OFF ratio” value was 1.17. In the case of U7G U8A G9A U11C C12U, the “aptazyme ON/OFF ratio” value is reported as 1.18. In the case of U7G U8A G9C C12A C13A, the “aptazyme ON/OFF ratio” value is reported as 1.04. For U7G U8A G9C C12A C13G, the “aptazyme ON/OFF ratio” value was 1.03. With U7G U8A G9C C12A C13U the “aptazyme ON/OFF ratio” value was 0.986. In the case of U7G U8A G9C U10A C12G C13G, the “aptazyme ON/OFF ratio” value is reported as 1.06. In the case of U7G U8A G9C U10A C12G C13A, the “aptazyme ON/OFF ratio” value is reported as 1.04. In the case of U7G U8A G9C U10A C12G C13U, the “aptazyme ON/OFF ratio” value is reported as 1.03. In the case of U7G U8A G9C U10C C12A, the “aptazyme ON/OFF ratio” value is reported as 1.02. For U7G U8A G9C U10C C12U, the “aptazyme ON/OFF ratio” value was 1.06. For U7G U8A G9C U10C C12G, the “aptazyme ON/OFF ratio” value was 1.07. With U7G U8A G9A U10G U11G C12U C13U the “aptazyme ON/OFF ratio” value was 1.17. With U7G U8A G9A U10G U11G C12U C13G the “aptazyme ON/OFF ratio” value was 1.18. With U7G U8A G9A U10G U11G C12U C13A the “aptazyme ON/OFF ratio” value was 1.4. With U7G U8A G9A U10G U11A C12A C13A the “aptazyme ON/OFF ratio” value was 1.04. In the case of U7G U8A G9A U10G U11A C12A C13G, the “aptazyme ON/OFF ratio” value is reported as 1.16. In the case of U7G U8A G9A U10G U11A C12A C13U, the “aptazyme ON/OFF ratio” value is reported as 1.07. For U7G U8A G9C U10G U11A C12A C13U, the “aptazyme ON/OFF ratio” value was 1.03. For U7G U8A G9C U10G U11A C12A C13G, the “aptazyme ON/OFF ratio” value was 0.999. For U7G U8A G9C U10G U11A C12A C13A, the “aptazyme ON/OFF ratio” value was 1.04. With U7G U8A G9C U10A C13A the “aptazyme ON/OFF ratio” value was 1.03. For U7G U8A G9C U10A C13U, the “aptazyme ON/OFF ratio” value was 1.02. For U7G U8A G9C U10A C13G, the “aptazyme ON/OFF ratio” value was 1.01. In the case of U7G U8A G9A U11G C12U C13A, the “aptazyme ON/OFF ratio” value is reported as 1.22. For U7G U8A G9A U11G C12U C13G, the “aptazyme ON/OFF ratio” value was 1.2. For U7G U8A G9A U11G C12U C13U, the “aptazyme ON/OFF ratio” value was 1.45. In the case of U7G U8A G9C U10A U11A C12U C13A, the “aptazyme ON/OFF ratio” value is reported as 1.04. With U7G U8A G9C U10A U11A C12U C13G the “aptazyme ON/OFF ratio” value was 1.05. For U7G U8A G9C U10A U11A C12U C13U, the “aptazyme ON/OFF ratio” value was 1.05. In the case of U7G U8A G9C U11A C12A C13U, the “aptazyme ON/OFF ratio” value is reported as 1.04. In the case of U7G U8A G9C U11A C12A C13G, the “aptazyme ON/OFF ratio” value is reported as 1.05. For U7G U8A G9C U11A C12A C13A, the “aptazyme ON/OFF ratio” value was 1.01. With U7G U8A G9C U10A U11A C12U the “aptazyme ON/OFF ratio” value was 1.03. In the case of U7G U8A G9C U10A U11A C12G, the “aptazyme ON/OFF ratio” value is reported as 1.03. In the case of U7G U8A G9C U10A U11A C12A, the “aptazyme ON/OFF ratio” value is reported as 1.03. With U7G U8A G9C U10G U11C C12U the “aptazyme ON/OFF ratio” value was 1.05. In the case of U7G U8A G9C U10G U11C C12G, the “aptazyme ON/OFF ratio” value is reported as 1.04. For U7G U8A G9C U10G U11C C12A, the “aptazyme ON/OFF ratio” value was 1.04. For U7G U8A G9C U10C, the “aptazyme ON/OFF ratio” value was 2.1. In the case of U7G U8A G9C U10A, the “aptazyme ON/OFF ratio” value is reported as 1.07. In the case of U7G U8A G9C U10G, the “aptazyme ON/OFF ratio” value is reported as 1.1. In the case of U7G U8A G9C U10C U11C C12U C13A, the “aptazyme ON/OFF ratio” value is reported as 1.02. In the case of U7G U8A G9C U10C U11C C12U C13G, the “aptazyme ON/OFF ratio” value is reported as 1.04. In the case of U7G U8A G9C U10C U11C C12U C13U, the “aptazyme ON/OFF ratio” value is reported as 1.01. In the case of U7G U8A G9C U10C U11A, the “aptazyme ON/OFF ratio” value is reported as 0.986. For U7G U8A G9C U10C U11G, the “aptazyme ON/OFF ratio” value was 1.05. For U7G U8A G9C U10C U11C, the “aptazyme ON/OFF ratio” value was 1.01. For U7G U8A G9C U10G U11G C13U, the “aptazyme ON/OFF ratio” value was 1.27. In the case of U7G U8A G9C U10G U11G C13A, the “aptazyme ON/OFF ratio” value is reported as 1.19. With U7G U8A G9C U10G U11G C13G the “aptazyme ON/OFF ratio” value was 1.1. With U7G U8A G9C U11A C13G the “aptazyme ON/OFF ratio” value was 1.02. For U7G U8A G9C U11A C13A, the “aptazyme ON/OFF ratio” value was 1.05. In the case of U7G U8A G9C U11A C13U, the “aptazyme ON/OFF ratio” value is reported as 1.04. For U7G U8A G9C U10C U11C C12G, the “aptazyme ON/OFF ratio” value was 1.03. For U7G U8A G9C U10C U11C C12U, the “aptazyme ON/OFF ratio” value was 1.03. With U7G U8A G9C U10C U11C C12A the “aptazyme ON/OFF ratio” value was 1.04. In the case of U7G U8A G9C U10A U11G C12G, the “aptazyme ON/OFF ratio” value is reported as 1.03. For U7G U8A G9C U10A U11G C12A, the “aptazyme ON/OFF ratio” value was 1.02. In the case of U7G U8A G9C U10A U11G C12U, the “aptazyme ON/OFF ratio” value is reported as 1.03. In the case of U7G U8A G9C U10G C12G C13G, the “aptazyme ON/OFF ratio” value is reported as 1.08.
